Data published in US20150284450A1, “COMBINATION THERAPIES USING ANTI-PSEUDOMONAS PSL AND PCRV BINDING MOLECULES” (priority 2012, published 2015).
Changes are numbered by the printed parent chain. In names and notes the source's numbering stands.

Assays:
[1] = test system: P. aeruginosa 6077 (exoU+); assay: Rabbit red blood cell lysis inhibition assay with strain 6077; type: cell-based, Pseudomonas aeruginosa; conditions: strain 6077; FIG. 12D-E
Protocol: Percent inhibition of cytotoxicity analysis was analysed for the parental V2L2 mAb, mAb166 (positive control) and R347 (negative control), where the antibodies were administered to cultured broncho-epithelial cell line A549 combined with log-phase P. aeruginosa strain 6077 (exoU+) at a MOI of approximately 10. A549 lysis was assayed by measuring released lactate dehydrogenase (LDH) activity and lysis in the presence of mAbs was compared to wells without mAb to determine percent inhibition. The V2L2 mAb, mAb166 (positive control) and R347 (negative control) were evaluated for their ability to prevent lysis of RBCs, where the antibodies were mixed with log-phase P. aeruginosa 6077 (exoU^+) and washed rabbit red blood cells (RBCs) and incubated for 2 hours at 37°. Intact RBCs were pelleted and the extent of lysis determined by measuring the OD405 of the cell-free supernatant. Lysis in the presence of anti-PcrV mAbs was compared to wells without mAb to determine percent inhibition.

P. aeruginosa 6294 (O6) = assay: Acute pneumonia model in mice, strain 6294; type: in vivo, Pseudomonas aeruginosa
Protocol: (§1) Antibodies or PBS were administered 24 hours before infection in each model. P. aeruginosa acute pneumonia, keratitis, and thermal injury infection models were performed as described (DiGiandomenico, A., et al., Proc Natl Acad Sci USA 104, 4624-4629 (2007)), with modifications. In the acute pneumonia model, BALB/c mice (The Jackson Laboratory) were infected with P. aeruginosa strains suspended in a 0.05 ml inoculum. In the thermal injury model, CF-1 mice (Charles River) received a 10% total body surface area burn with a metal brand heated to 92° C. for 10 seconds. Animals were infected subcutaneously with P. aeruginosa strain 6077 at the indicated dose. For organ burden experiments, acute pneumonia was induced in mice followed by harvesting of lungs, spleens, and kidneys 24 hours post-infection for determination of CFU.

[2] = test system: P. aeruginosa 6206 (O11-ExoU+); assay: Acute pneumonia model in mice, strain 6206; type: in vivo, Pseudomonas aeruginosa; conditions: 6206; W4-RAD 0.2 mg/kg; monitored 120 hours; FIG. 21A
Protocol: as §1

[3] = test system: P. aeruginosa 6077 (O11-cytotoxic); assay: Corneal infection (keratitis) model in mice, strain 6077; type: in vivo, Pseudomonas aeruginosa; conditions: C3H/HeN mice, IP dosing 16 hours prior to 6077 (1×10^6 CFU), FIG. 8H
Protocol: as §1
Cam-003 and WapR-004 efficacy was next evaluated in a P. aeruginosa corneal infection model which emphasizes the pathogens ability to attach and colonize damaged tissue. […] FIG. 8 (H): The activity of anti-Psl and anti-PcrV monoclonal antibodies V2L2 was tested in a P. aeruginosa mouse ocular keratitis model. C3H/HeN mice were injected intraperitoneally (IP) with PBS or a control IgG1 antibody (R347) at 45 mg/kg or WapR-004 (α-Psl) at 5 mg/kg or V2L2 (α-PcrV) at 5 mg/kg, 16 hours prior to infection with 6077 (O11-cytotoxic−1×10^6 CFU) Immediately before infection, mice were anesthetized followed by initiation of three 1 mm scratches on the cornea and superficial stroma of one eye of each mouse using a 27-gauge needle under a dissection microscope, followed by topical application of P. aeruginosa 6077 strain in a 5 μl inoculum. Eyes were photographed at 48 hours post infection followed by corneal grading by visualization of eyes under a dissection microscope. Grading of corneal infection was performed as previously described by Preston et al. (Preston, M J., 1995, Infect. Immun. 63:3497). Briefly, infected eyes were graded 48 h after infection with strain 6077 by an investigator who was unaware of the animal treatments. The following grading scheme was used: grade 0, eye macroscopically identical to an uninfected eye; grade 1, faint opacity partially covering the pupil; grade 2, dense opacity covering the pupil; grade 3, dense opacity covering the entire pupil; grade 4, perforation of the cornea (shrinkage of the eyeball).

[4] = test system: P. aeruginosa serogroup 05 strain (PAO1.lux); assay: Opsonophagocytic killing (OPK) assay with luminescent PAO1.lux, HL-60 cells and baby rabbit serum; type: cell-based, Pseudomonas aeruginosa; conditions: FIG. 10C, 11N-Q
Protocol: This example describes the evaluation of prioritized human IgG1 antibodies to promote OPK of P. aeruginosa. […] OPK assays were performed as described in (DiGiandomenico, A., et al., Infect Immun 72, 7012-7021 (2004)), with modifications. Briefly, assays were performed in 96-well plates using 0.025 ml of each OPK component; P. aeruginosa strains; diluted baby rabbit serum; differentiated HL-60 cells; and monoclonal antibody. In some OPK assays, luminescent P. aeruginosa strains, which were constructed as described (Choi, K. H., et al., Nat Methods 2, 443-448 (2005))., were used. Luminescent OPK assays were performed as described above but with determination of relative luciferase units (RLUs) using a Perkin Elmer ENVISION Multilabel plate reader (Perkin Elmer).

B1: V2L2-GL: V2L2-germlined mAb (antibody, V domains shown)
VH: EVQLLESGGGLVQPGGSLRLSCAASGFTFSSYAMNWVRQAPGKGLEWVSAITISGITAYYTDSVKGRFTISRDNSKNTLYLQMNSLRAEDTAVYYCAKEEFLPGTHYYYGMDVWGQGTTVTVSS
VL: AIQMTQSPSSLSASVGDRVTITCRASQGIRNDLGWYQQKPGKAPKLVIYSASTLQSGVPSRFSGSGSGTDFTLSISSLQPDDFATYYCLQDYNYPWTFGQGTKVEIK
modifications: V2L2-GL VH; V2L2-MD and V2L2-GL VL
notes: V2L2-germlined mAb
prevention of RBC lysis [1]: demonstrated prevention of RBC lysis

B2: WapR-004RAD: identical to WapR-004 except for substitution G98A of the VH; VH SEQ ID NO: 74, VL SEQ ID NO: 12 (antibody, V domains shown)
VH: EVQLLESGPGLVKPSETLSLTCNVAGGSISPYYWTWIRQPPGKGLELIGYIHSSGYTDYNPSLKSRVTISGDTSKKQFSLHVSSVTAADTAVYFCARADWDLLHALDIWGQGTLVTVSS
VL: EIVLTQSPSSLSTSVGDRVTITCRASQSIRSHLNWYQQKPGKAPKLLIYGASNLQSGVPSRFSGSGSGTDFTLTISSLQPEDFATYYCQQSYSFPLTFGGGTKLEIK
modifications: WapR-004RAD VH; WapR-004 & WarR-004RAD VL
organ burden in lung, spleen and kidney (P. aeruginosa 6294 (O6); 2.5×10^7 CFU 6294, Bs2-/Bs3-V2L2 0.7 mg/kg, V2L2 or W4-RAD 0.5 mg/kg, FIG. 23A): no effect on decreasing organ burden | survival effect, in words (P. aeruginosa 6294 (O6); 6294, bispecifics 0.28 mg/kg, V2L2 or W4-RAD 0.2 mg/kg, FIG. 24): did not affect survival | animals survived [2]: Approximately 90% | bacterial CFU in total eye homogenates compared to R347 control [3]: reduced bacterial colony forming units (CFU) in total eye homogenates | corneal pathology compared to R347 control ([3]; graded 48 h after infection): significantly less pathology

B3: Psl0588: lead optimized anti-Psl clone; VH SEQ ID NO:292, VL SEQ ID NO:293 (antibody, V domains shown)
VH: QVQLQESGPGLVKPSETLSLTCTVSGGSISPYYWTWIRQPPGKGLELIGYIHSSGYTDYNPSLKSRVTISGDTSKKQFSLKLSSVTAADTAVYYCARADDPFPGYLDIWGQGTMVTVSS
VL: B2 VL with E1D, V3Q, T13A, Y92D, S93T, T97K, L104V
modifications: Psl0588-Germline VH
OPK activity of lead optimized anti-Psl clones (basis of selection) [4]: enhanced OPK activity

B4: Psl0225: lead optimized anti-Psl clone; VH SEQ ID NO:290, VL SEQ ID NO:291 (antibody, V domains shown)
VH: B3 VH with D99M, P101I, F102E, G104H, Y105A
VL: B2 VL with E1D, V3Q, T13A, Y92D, S93D, F94G, P95F, L96P, T97N, L104V
modifications: Psl0225-Germline VH; Psl0225-Germline VL
OPK activity of lead optimized anti-Psl clones (basis of selection) [4]: enhanced OPK activity

B5: Psl0337: lead optimized anti-Psl clone; VH SEQ ID NO:295, VL SEQ ID NO:296 (antibody, V domains shown)
VH: B3 VH with D100W, P101D, F102H, P103K, G104H, Y105A
VL: B2 VL with E1D, V3Q, T13A, Q90D, Y92S, F94W, L104V
modifications: Psl0337-Germline VH; Psl0337-Germline VL
OPK activity of lead optimized anti-Psl clones (basis of selection) [4]: enhanced OPK activity
